The values that follow come from the supplement of paper PMC10724198.

± gives the standard deviation of the averaged measurements.

Data set [1] concerns Saccharomyces cerevisiae. As to the kind of experiment: protein stability index of tFT-peptide fusion (C-terminal peptide) (PSI (0-1 scale)); higher = more stable (slower turnover). To be noted: genetic background: wild type; temperature: 30 C.
In data set [2] the test system is Saccharomyces cerevisiae. The description is as above. Here is the method: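 MPS profiling in S. cerevisiae of the tFT-X12 degron library: putative degron peptides plus stable controls, 12 aa, fused to the C-terminus of a sfGFP-mCherry timer. Cells are FACS-sorted into 8 mCherry/sfGFP bins and deep-sequenced. PSI runs from 0 (unstable) to 1 (stable). Backgrounds are wild type, das1Δ and doa10Δ at 30 °C, and wild type, das1Δ, cdc34-1 and cdc53-1 at 37 °C; 2-3 technical replicates each.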

[3] abbreviates: genetic background: cdc34-1, temperature: 37 C.
Setting [4] is: genetic background: cdc53-1, temperature: 37 C.
Setting [5] is: genetic background: das1 deletion, temperature: 30 C.
Where [6] appears, read: genetic background: das1 deletion, temperature: 37 C.
The mark [7] stands for this setting: genetic background: doa10 deletion, temperature: 30 C.
The mark [8] stands for this setting: genetic background: wild type, temperature: 30 C.
The mark [9] stands for this setting: genetic background: wild type, temperature: 37 C.
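Also: PSI is a weighted mean of sequencing reads over stability bins, variants kept only with over 10 reads, mCherry proximal and sfGFP distal, peptide attached via GGGS linker.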

For the sequence VLLVRIFLCWVC, the protein stability index in data set [1] was 0.16 ± 0.039; in data set [2] (setting [3]), 0.178 ± 0.013; in data set [2] (setting [4]), 0.256 ± 0.049; in data set [2] (setting [5]) it was 0.184 ± 0.017; in data set [2] (setting [6]) it was 0.338 ± 0.0097; in data set [2] (setting [7]), 0.13 ± 0.0046. Also, the protein stability index in data set [2] (setting [8]) was 0.118 ± 0.016; in data set [2] (setting [9]), 0.1826 ± 0.001.

Regarding VLLYRIAPRLLH, the protein stability index in data set [1] worked out at 0.303 ± 0.03; in data set [2] (setting [3]), 0.597 ± 0.079; in data set [2] (setting [4]) it was 0.6841 ± 0.0027; in data set [2] (setting [5]), 0.6298 ± 0.0035; in data set [2] (setting [6]), 0.735 ± 0.016; in data set [2] (setting [7]), 0.181 ± 0.019. Further, the protein stability index in data set [2] (setting [8]) is 0.202 ± 0.023; in data set [2] (setting [9]) it was 0.4082 ± 0.0026.

Take VLSLYWLIISRL: the protein stability index came out at 0.4672 ± 0.00061 in data set [1]; 0.717 ± 0.04 in data set [2] (setting [3]); 0.736 ± 0.0093 in data set [2] (setting [4]); 0.616 ± 0.016 in data set [2] (setting [5]); 0.742 ± 0.012 in data set [2] (setting [6]); 0.446 ± 0.021 in data set [2] (setting [7]). The protein stability index was 0.42 ± 0.0056 in data set [2] (setting [8]) and 0.566 ± 0.021 in data set [2] (setting [9]).

As to VLVSVSLRVCMV, the protein stability index in data set [1] is 0.162 ± 0.039; in data set [2] (setting [3]) it was 0.0542 ± 0.021; in data set [2] (setting [4]), 0.101 ± 0.025; in data set [2] (setting [5]) it was 0.106 ± 0.03; in data set [2] (setting [6]), 0.206 ± 0.015; in data set [2] (setting [7]) it was 0.083 ± 0.012. Moreover, the protein stability index worked out at 0.108 ± 0.024 in data set [2] (setting [8]) and 0.178 ± 0.016 in data set [2] (setting [9]).

For the sequence VLVVLRSEVSLS, the protein stability index amounted to 0.284 ± 0.015 in data set [1]; 0.286 ± 0.0038 in data set [2] (setting [3]); 0.398 ± 0.022 in data set [2] (setting [4]); 0.227 ± 0.027 in data set [2] (setting [5]); 0.3847 ± 0.0022 in data set [2] (setting [6]); 0.1948 ± 0.0011 in data set [2] (setting [7]). Moreover, the protein stability index in data set [2] (setting [8]) amounted to 0.22 ± 0.02; in data set [2] (setting [9]), 0.371 ± 0.0053.

For the sequence VLVVVAFVALPR, the protein stability index worked out at 0.372 ± 0.016 in data set [1]; 0.264 ± 0.0083 in data set [2] (setting [3]); 0.41 ± 0.053 in data set [2] (setting [4]); 0.285 ± 0.015 in data set [2] (setting [5]); 0.485 ± 0.035 in data set [2] (setting [6]); 0.275 ± 0.01 in data set [2] (setting [7]). The protein stability index was determined as 0.282 ± 0.032 in data set [2] (setting [8]) and 0.461 ± 0.031 in data set [2] (setting [9]).

Consider VLWSCCGGVRVR, for which the protein stability index stood at 0.516 ± 0.036 in data set [1]; 0.587 ± 0.014 in data set [2] (setting [3]); 0.629 ± 0.013 in data set [2] (setting [4]); 0.465 ± 0.023 in data set [2] (setting [5]); 0.65 ± 0.022 in data set [2] (setting [6]); 0.452 ± 0.03 in data set [2] (setting [7]). The protein stability index amounted to 0.483 ± 0.0067 in data set [2] (setting [8]) and 0.612 ± 0.018 in data set [2] (setting [9]).

Regarding VLWVYLFLFVIF, the protein stability index was 0.255 ± 0.05 in data set [1]; 0.266 ± 0.04 in data set [2] (setting [3]); 0.291 ± 0.033 in data set [2] (setting [4]); 0.248 ± 0.022 in data set [2] (setting [5]); 0.346 ± 0.0079 in data set [2] (setting [6]); 0.235 ± 0.025 in data set [2] (setting [7]). For the same sequence, the protein stability index amounted to 0.211 ± 0.019 in data set [2] (setting [8]) and 0.325 ± 0.019 in data set [2] (setting [9]).

In the case of VLYSRFPPPLIA, the protein stability index in data set [1] amounted to 0.4803 ± 0.0032; in data set [2] (setting [3]), 0.51169 ± 7.2e-05; in data set [2] (setting [4]) it was 0.537 ± 0.0073; in data set [2] (setting [5]) it was 0.43 ± 0.022; in data set [2] (setting [6]), 0.554 ± 0.02; in data set [2] (setting [7]), 0.396 ± 0.0062. Besides, the protein stability index was 0.415 ± 0.023 in data set [2] (setting [8]) and 0.5375 ± 0.0029 in data set [2] (setting [9]).

Turning to VMWFVLVGLCIL, the protein stability index in data set [1] stood at 0.473 ± 0.033; in data set [2] (setting [3]), 0.4219 ± 0.0041; in data set [2] (setting [4]), 0.449 ± 0.035; in data set [2] (setting [5]) it was 0.382 ± 0.044; in data set [2] (setting [6]) it was 0.506 ± 0.021; in data set [2] (setting [7]) it was 0.366 ± 0.0077. In addition, the protein stability index in data set [2] (setting [8]) came to 0.378 ± 0.018; in data set [2] (setting [9]), 0.496 ± 0.006.

As to VNTLCCVFRCNL, the protein stability index in data set [1] was found to be 0.805 ± 0.045; in data set [2] (setting [3]) it was 0.96 ± 0.0047; in data set [2] (setting [4]), 0.9524 ± 0.0023; in data set [2] (setting [5]), 0.816 ± 0.013; in data set [2] (setting [6]) it was 0.889 ± 0.026; in data set [2] (setting [7]) it was 0.8247 ± 0.0043. The protein stability index in data set [2] (setting [8]) turned out to be 0.826 ± 0.028; in data set [2] (setting [9]), 0.8905 ± 0.0035.

Turning to VPRGAALIFLCF, the protein stability index was 0.517 ± 0.055 in data set [1]; 0.574 ± 0.043 in data set [2] (setting [3]); 0.646 ± 0.025 in data set [2] (setting [4]); 0.53 ± 0.036 in data set [2] (setting [5]); 0.6215 ± 0.0013 in data set [2] (setting [6]); 0.449 ± 0.025 in data set [2] (setting [7]). Besides, the protein stability index in data set [2] (setting [8]) is 0.464 ± 0.023; in data set [2] (setting [9]) it was 0.582 ± 0.0063.

As to VPRSLYSVLRLA, the protein stability index stood at 0.2 ± 0.025 in data set [1]; 0.525 ± 0.062 in data set [2] (setting [3]); 0.685 ± 0.026 in data set [2] (setting [4]); 0.652 ± 0.044 in data set [2] (setting [5]); 0.714 ± 0.012 in data set [2] (setting [6]); 0.0744 ± 0.01 in data set [2] (setting [7]). The figures for the protein stability index in data set [2] (setting [8]) and in data set [2] (setting [9]) were 0.0833 ± 0.0025 and 0.11 ± 0.0054, respectively.

Turning to VPSPWLIRSLMS, the protein stability index in data set [1] was found to be 0.409 ± 0.023; in data set [2] (setting [3]), 0.648 ± 0.024; in data set [2] (setting [4]), 0.687 ± 0.019; in data set [2] (setting [5]) it was 0.643 ± 0.037; in data set [2] (setting [6]) it was 0.716 ± 0.026; in data set [2] (setting [7]) it was 0.224 ± 0.0045. In addition, the protein stability index in data set [2] (setting [8]) was determined as 0.278 ± 0.026; in data set [2] (setting [9]), 0.518 ± 0.039.

Turning to VQLFCLRREMII, the protein stability index came to 0.381 ± 0.0047 in data set [1]; 0.544 ± 0.025 in data set [2] (setting [3]); 0.609 ± 0.009 in data set [2] (setting [4]); 0.503 ± 0.027 in data set [2] (setting [5]); 0.583 ± 0.043 in data set [2] (setting [6]); 0.335 ± 0.0084 in data set [2] (setting [7]). For the same sequence, the protein stability index was 0.365 ± 0.019 in data set [2] (setting [8]) and 0.506 ± 0.013 in data set [2] (setting [9]).
